This is an account of results in patent publication US7078491 (Amgen, dated 2006).

The target of this test is T1, flag-tagged hTERT protein from transfected 293T cells (human, UniProt O14746 1-1132).
T1 construct: also called hTERT from 293T cells; 293T lysate
The test can be described thus: immunoprecipitation from 293T lysate, Western blot with peptide polyclonal antibody. As to the method: Immunoprecipitation experiments were also carried out to verify the specificity of the 4A5 and 4B5 monoclonal antibodies. Protein G Sepharose beads (Pharmacia) were incubated with anti-mouse IgG (Amersham Biotech) in CHAPS buffer (0.5% CHAPS, 10 mM TRIS, 1 mM NaCl, 10% glycerol, 1 mM DTT, RNase inhibitor, Complete Protease Inhibitor; Boehringer Mannheim) at room temperature for 1 to 4 hours. The beads were washed and then incubated again at room temperature for 1 to 4 hours with 2 µg of one of the following antibodies: anti-GST, peptide polyclonal antibody, RT polyclonal antibody, 4A5 monoclonal antibody, 4B5 monoclonal antibody. For the negative control 4G6 antibody, the beads were incubated with 4G6 antibody in CHAPS buffer.
Following the incubation, the beads were washed with the aforementioned buffer and then incubated in the aforementioned buffer containing either 50 µl of hTERT-s200 generated by the TNT reaction on rabbit reticulocyte (see upper panels in FIG. 2) or 100 µl of 293T lysate (see lower panel in FIG. 2) for 1 to 4 hours at 4° C. The beads were washed again in the aforementioned buffer, the excess buffer removed form the beads and suspended in 4× SDS loading dye (see Sambrook et al, supra.). […] Western blotting was carried out as described above and probed with 0.28 µg/ml of peptide polyclonal hTERT antibody and binding was detected with the ECL method. […]

T1 sequence (O14746 whole entry): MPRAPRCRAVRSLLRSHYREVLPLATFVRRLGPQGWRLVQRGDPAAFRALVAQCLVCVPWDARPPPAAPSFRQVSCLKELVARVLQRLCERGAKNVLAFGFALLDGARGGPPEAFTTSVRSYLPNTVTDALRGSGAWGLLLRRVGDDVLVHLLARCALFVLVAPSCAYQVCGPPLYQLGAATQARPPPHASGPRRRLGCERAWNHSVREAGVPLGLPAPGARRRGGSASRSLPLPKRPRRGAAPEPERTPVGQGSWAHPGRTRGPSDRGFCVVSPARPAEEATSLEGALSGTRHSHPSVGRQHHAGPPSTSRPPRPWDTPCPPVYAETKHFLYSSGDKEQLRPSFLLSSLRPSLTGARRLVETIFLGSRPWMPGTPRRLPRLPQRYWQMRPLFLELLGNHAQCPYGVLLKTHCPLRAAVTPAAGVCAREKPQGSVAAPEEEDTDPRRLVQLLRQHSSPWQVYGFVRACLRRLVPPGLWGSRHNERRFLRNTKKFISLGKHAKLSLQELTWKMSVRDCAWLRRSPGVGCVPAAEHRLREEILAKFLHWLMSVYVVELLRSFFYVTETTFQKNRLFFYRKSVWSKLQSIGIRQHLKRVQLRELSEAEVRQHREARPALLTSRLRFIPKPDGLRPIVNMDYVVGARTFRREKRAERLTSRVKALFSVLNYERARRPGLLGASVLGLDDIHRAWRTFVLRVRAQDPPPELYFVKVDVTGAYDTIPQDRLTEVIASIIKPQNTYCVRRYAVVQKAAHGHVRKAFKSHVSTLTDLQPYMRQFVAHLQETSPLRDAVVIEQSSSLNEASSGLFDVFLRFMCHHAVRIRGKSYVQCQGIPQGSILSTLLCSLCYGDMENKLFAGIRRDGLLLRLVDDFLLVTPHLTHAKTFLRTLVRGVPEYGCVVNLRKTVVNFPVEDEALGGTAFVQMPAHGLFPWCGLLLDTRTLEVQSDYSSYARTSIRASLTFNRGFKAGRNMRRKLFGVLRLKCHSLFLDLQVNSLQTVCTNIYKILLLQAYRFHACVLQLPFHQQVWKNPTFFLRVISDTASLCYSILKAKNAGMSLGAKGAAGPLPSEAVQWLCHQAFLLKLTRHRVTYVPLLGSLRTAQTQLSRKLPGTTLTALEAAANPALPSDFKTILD

B1: 4A5 monoclonal antibody (hybridoma 4A5, ATCC PTA-2412) (antibody, V domains shown)
VH: EVKLVESGGGLVKPGGSLKLSCAASGFTFSSYAMSWVRQTPEKRLEWVASISSGGNTYYPDNVQGRFTISRDNARNILYLQMSSLRSEDTAMFYCAREGVYDTYGGVDYWGQGTTLTVSS
VL: DIVLTQSPTSLAVSLGQRATISCKASQSVDYDGDSFINWYQQTPGQPPKLLIYAASNLASGIPARFSGSGSGTDFTLNIHPVEEEDAATYYCQQSNEAPPTFGGGTKLEI
notes: Mouse monoclonal from hybridoma, characterized as IgG2B type, kappa light chain primers used; also called 4A5 mAb; 45A
As for B1, the binding result was “binds”.
